Assay results published in IntAct's records for PubMed 15378002.

B1: Transcription factor Jun (Homo sapiens), P05412 (parent)
chain: MTAKMETTFYDDALNASFLPSESGPYGYSNPKILKQSMTLNLADPVGSLKPHLRAKNSDLLTSPDVGLLKLASPELERLIIQSSNGHITTTPTPTQFLCPKNVTDEQEGFAEGFVRALAELHSQNTLPSVTSAAQPVNGAGMVAPAVASVAGGSGSGGFSASLHSEPPVYANLSNFNPGALSSGGGAPSYGAAGLAFPAQPQQQQQPPHHLPQQMPVQHPRLQALKEEPQTVPEMPGETPPLSPIDMESQERIKAERKRMRNRIAASKCRKRKLERIARLEEKVKTLKAQNSELASTANMLREQVAQLKQKVMNHVNSGCQLMLTQQLQTF
partner: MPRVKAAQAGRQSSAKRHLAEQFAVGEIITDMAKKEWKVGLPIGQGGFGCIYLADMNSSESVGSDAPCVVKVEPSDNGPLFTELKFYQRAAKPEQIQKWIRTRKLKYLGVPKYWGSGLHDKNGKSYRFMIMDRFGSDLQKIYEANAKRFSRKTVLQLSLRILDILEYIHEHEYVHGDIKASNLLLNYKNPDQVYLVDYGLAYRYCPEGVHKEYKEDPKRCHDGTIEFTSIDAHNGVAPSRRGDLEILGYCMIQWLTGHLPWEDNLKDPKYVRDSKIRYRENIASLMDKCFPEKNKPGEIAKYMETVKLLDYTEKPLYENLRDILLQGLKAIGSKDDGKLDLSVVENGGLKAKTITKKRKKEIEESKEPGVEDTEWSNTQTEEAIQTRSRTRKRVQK
B2: Serine/threonine-protein kinase VRK1 (Homo sapiens), Q99986 (parent)
chain: B1 partner

Variants of: B1
Conditions: with vrk1_human VRK1, Q99986

Variant	effect of a mutation on the interaction
MTAKMETTFYDDALNASFLPSESGPYGYSNPKILKQSMTLNLADPVGSLKPHLRAKNSDLLTAPDVGLLKLAAPELERLIIQSSNGHITTTPTPTQFLCPKNVTDEQEGFAEGFVRALAELHSQNTLPSVTSAAQPVNGAGMVAPAVASVAGGSGSGGFSASLHSEPPVYANLSNFNPGALSSGGGAPSYGAAGLAFPAQPQQQQQPPHHLPQQMPVQHPRLQALKEEPQTVPEMPGETPPLSPIDMESQERIKAERKRMRNRIAASKCRKRKLERIARLEEKVKTLKAQNSELASTANMLREQVAQLKQKVMNHVNSGCQLMLTQQLQTF [S63A;S73A]	decreasing interaction

Variants of: B2
Conditions: with jun_human JUN, P05412

Variant	effect of a mutation on the interaction
MPRVKAAQAGRQSSAKRHLAEQFAVGEIITDMAKKEWKVGLPIGQGGFGCIYLADMNSSESVGSDAPCVVKVEPSDNGPLFTELKFYQRAAKPEQIQKWIRTRKLKYLGVPKYWGSGLHDKNGKSYRFMIMDRFGSDLQKIYEANAKRFSRKTVLQLSLRILDILEYIHEHEYVHGDIEASNLLLNYKNPDQVYLVDYGLAYRYCPEGVHKEYKEDPKRCHDGTIEFTSIDAHNGVAPSRRGDLEILGYCMIQWLTGHLPWEDNLKDPKYVRDSKIRYRENIASLMDKCFPEKNKPGEIAKYMETVKLLDYTEKPLYENLRDILLQGLKAIGSKDDGKLDLSVVENGGLKAKTITKKRKKEIEESKEPGVEDTEWSNTQTEEAIQTRSRTRKRVQK [K179E]	disrupting interaction
